Measured values: publication PMC12205998

Assays:
[1] = target: E. fergusonii BrxB WT (Escherichia fergusonii); assay: SEC; analytical SEC of E. fergusonii BrxB alone, 10 μM in 100 μl, Superdex 75 increase 10/300 GL, 20 mM Tris HCl pH 7.9, 150 mM NaCl; monomer and dimer
[2] = target: E. fergusonii BrxB WT (Escherichia fergusonii); assay: native MS; collected BrxB SEC peaks exchanged into 10 mM ammonium bicarbonate, 0.5 mg/ml, positive ion electrospray time-of-flight MS; monomer and dimer

- stoichiometry N [1]: 2
- stoichiometry N [2]: 2
Substance: E. fergusonii BrxB WT (natural protein)
